Results reported in paper PMC2912147 (Neuron, 2008).

Target: Flag-tagged full length HDAC1 (UniProt Q13547 1-482)
Assay: co-IP

Flag-tagged full length HDAC1, sequence (Q13547 whole entry): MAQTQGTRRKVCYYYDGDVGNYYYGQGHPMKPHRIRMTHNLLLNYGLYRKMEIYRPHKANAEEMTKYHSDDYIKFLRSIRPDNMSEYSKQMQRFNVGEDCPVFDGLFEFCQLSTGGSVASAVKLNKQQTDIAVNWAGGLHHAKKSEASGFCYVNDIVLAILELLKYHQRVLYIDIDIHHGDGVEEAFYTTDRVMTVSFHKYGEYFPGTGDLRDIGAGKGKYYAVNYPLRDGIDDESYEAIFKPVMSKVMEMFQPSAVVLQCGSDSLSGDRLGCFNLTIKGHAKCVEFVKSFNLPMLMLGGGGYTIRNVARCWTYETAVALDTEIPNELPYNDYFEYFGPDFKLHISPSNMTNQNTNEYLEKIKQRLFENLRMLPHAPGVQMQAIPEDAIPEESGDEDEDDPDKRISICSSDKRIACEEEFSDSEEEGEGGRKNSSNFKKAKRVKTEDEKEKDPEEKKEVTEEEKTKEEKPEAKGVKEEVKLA

B1: GFP-p25 (full length p25, overexpressed in HEK293T cells) (domain or fragment)
chain: not shown
B1 was tested, and the “fold interaction against p35” value was greater than 12 fold.
